The target of this data set is T1, Fur (ferric uptake regulator) (Escherichia coli (strain of the fur …, UniProt P0A9A9 1-148)).
T1 sequence: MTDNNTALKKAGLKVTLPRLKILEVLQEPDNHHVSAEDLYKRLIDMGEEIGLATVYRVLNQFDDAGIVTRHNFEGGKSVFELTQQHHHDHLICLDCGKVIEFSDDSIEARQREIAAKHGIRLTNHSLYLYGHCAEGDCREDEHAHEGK
Briefly: EMSA; dimer and tetramer complexes; EMSA as in cited ref 52, binding buffer not given; annealing buffer 10 mM Tris-HCl, 50 mM NaCl, 1 mM EDTA. To be noted: protein: recombinant; tags: IMPACT system (intein tag, self-cleaved; no residual tag stated); chain copies: 4; label: Cy3 at 3' end of S3 as printed; blunt. (In EMSA bound probe runs differently from free probe, usually more slowly.)

B1: fecIR Fur box, E. coli 83972 (dsDNA)
DNA 1: TCCAATTGTAATGATAACCATTCTCATATTAATATGACTACGTGA
DNA 2: TCACGTAGTCATATTAATATGAGAATGGTTATCATTACAATTGGA
For B1, the binding result was “binds”.
